Source: the NTF2 design screens of Basanta et al. (2020)

Test: protease stability score; higher = more stable; yeast display proteolysis, trypsin and chymotrypsin;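 further: log10 excess protease needed over predicted unfolded state with 0 meaning unfolded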

Sequence | protease stability score
DEEEEHKFEDQVRTNDPDKQRKQLDKDVHVEYGDRTYHGRDAVDKWYKKMKKQVDHVHYHDIRIRNGHATLQNEANVNGRNVRMHVDIEVHNGRLKRMTINFRDEEDTKLFDRLVR | 0.048
DEEEEKQLEDIWKENDWQKWANDADPNVRVNIGDETLHGREDLQRWAQLVRKRYDHVKIESVRFHNGRADVEVNVVVDGEQFRYKLTIQLHNGRVKHMKIQATDEQVKTLLDQMRS | 1.59
DEEEEKRMTKILEHNDFHKLADNADPNVQINIGDKHIHGRDQAQTFFKQMQKAADHWSIRTMNVRNGHIVVDLVMNVNGQNIRFNLRIERRNGHIKSASVQFTDPDQKRQFDENRS | 0.599
DEEEELRRAVKAIKQYMTGNEQEVSKMADPNVKIQVGEKRIHGREQLRQEVKRLHDTVDHIEVLSITHTGNSAQVDARVEVDGRVQRFVLRVVMHNGRITSIVVEVTDEDRFKNMVK | 1.2
DEEEFKKHAEQVIRILEHGDPDQMKKNADPNAKIEVGDRTYHGHDRMREFVKRLRDRVDHMSVETWSAHNGRIHIHFRVDINGKDVRVVMQLTVDNGKIKRLRVKSG | 0.914
DEEEHAKEFVKRLDKVNKKNDEESFEDLADENATFRYGDKTYRGREDMRKLVQDLRKRADHADVKLTRLELHNGQVRAEIDMRFRHDGRTHKDVFDAQLKVTNGTVKLTNLNQS | -0.059
DEEEHAKQFLDKMHRAFENNNKDEVRKLADENARFEYGDKTYHGDEEFAKWMREIRERVDRVEMDLRSIEREGEKLNIRFEVKYKHNGNSDTQRWVFVIKHHNGDYVIEKLREQ | 1.22
DEEEHFRKWVHEFIKILETGDPDQAKKMMDPNVRETVGDKSLHGHDQMVREIEKRRESIDHVNFDIKDYRIQGNHFVLDLKVNEVHNGKEITRRLEVDASTQGDKLYVNEIRLS | -0.146
DEEEIATENAQRFINAVNKNNPDEFVKNMDEDVRIEYGDKVVHGRSQAKHLANEMVDKVDHLTARITDFKVHNGEVDVNVRITFRHNGRNDTHHVRLHLQVHNGRLHIQSMKWS | -0.412
DEEEIEDVARKLNTGNKDDMRELADKDVKAQVGDKEVHGRENLVRIMKRLKDQADHIKVDEVHVQGNRIQVRFQMNINGTTFDVSFVAKVSNGHIKYFSLRARDPRLDEKILRILK | 0.493
DEEEIHTMLEVLKQNDEQTLQDLFDENAKISVGEFRFHGRDEAIEFAREFNKAVDHVHYKRVDVQGNRARVKMQLNVNGKNIDVVVKVEIHNGRIKSLRIDVRDEQLRRDLEEAFR | 1.71
DEEEIRHINRKLLKALQEGNEHEVAKLADKDASFDIGDKTYNGRHQVRNMIRKIRSQVDHMTVERMSISNGRIFVFIVFEINGRTRRTNQVVEVKNGRIKEVHVKET | 0.145
DEEEIRMILDVIRARESGDEDRLHELLDKDVEFQVGEKTYHGREEIVRQVLQERREMQYSVNVKTVRDHNGVADIKAEFHFLYNGRPMNIDVEIHAHAHNGSVVNFRVRVDPKQMDDFKT | 1.26
DEEEKAEHVADEVRHALKRGDEDRLMNLMDENVRVEVGDKTIHGREEVRKELHRISKDFDHVDAKVKSIKVTNGNVIIIMDVKQNVNGRTRRFEVSMILDVKGDKARIQHIKND | 1.11
DEEEKAREQQEEFQKALEKNDKEKIKNYFDPNVRVHVGDKTLHGREDVAERLIQLAQHVDHIQVEIKKLDVRNGRIDVDVVVVFERNGQRSTQRFKITMKINNGRAYVQHMKQS | 0.109
DEEEKAREYNKTIRQVWHDNNEEDMMRLADENARLEYGDKQLHGRENFRKRQHDIHRRVDKVDVDVKRVEVHNGKFKAQFTFTLVSNGENNKRLYILVAQLHGDKFRIKQIVEQ | 0.099
DEEEKKKKAEHAAKAFVTGDEERMNQLASPDVTATVGDQRVHGRDDMNKLLQEFKRQADHVELKSFRNDENHVTIHVRVNHNGKMDKFVVNIRMHNGQVKIIHQTSS | -0.289
DEEEKKRQQEEIERLLHTGDHDRFSELMDKDVKMDVGEDRVHGRENVAKHLADEMKRIDHVNVQSVDVKGEKFDFSAQFRVNGQTVQRVIIMVQKNGKWKELSITVTDDDQLKRVES | 0.092
DEEELDNAKEMVKALLHGNPDRAKQLADPNAHYHVGDKKVHGNDNWAKLVRKERQELRVKIDRVDIKSKGNKVSVDIDVVHDHNGQPQKRNYRLHVEIHNGKVRNVKIQHDG | 0.066
DEEELDRLQKQLERNDWETFVRQADENVKVKYGDRSLHGHEDFNKYMKRLHDQVDHYQLNRVTNHGDHLQARVVFRFNGQNIDMTFEVRVHNGRIQEVVFHFTDPRTHKQFKENMD | 1.42
DEEELEKINQLIKTNDFQQLRQDADPNVQVEYGDKSYHGRENLTKNMREFEKMVDHVQLKDYRVKGEKLEADMVATVNGREIRFTLSMNVHNGKIKQISLKYRNEDQKRRMEEALN | 0.922
DEEELEKMAEKVIKMLRSGDPRQAVRMMDENAHVEYGDKTYHGREDAERAVKQWTDHFDKVRVVHVDVHNGTVNVDMEINHNGRVERYVVRVEVHNGRVKHLVVKSS | 1.2
DEEELERQAQELVDAWQTNDESKIRHLVDENARVQVGDTTWKGREKAEEQVQEFKKQVDRLRVISVRVHGENIVVHVEIVHNGKHFSLTIVIEMHNGKVKHISVDPKAVEIATK | 0.497
DEEELETMRRILKENDWETIAHNADKDVKMTVGDKTIHGRENVRHWVKKWQKNVDHIDVESIDVQGDRIDMVARNVVNGKTMKLVFHINVHNGHVQEIELRARNEKDEELLRKAEG | 1.3
DEEELKDVLKKFSKNDEDFFKDLADKDARAVYGDKEVHGREEMSDLWRILKEQVDHMHINHMKLQGDRIVVDFTMTINGQEYVNVQELKFQNGKLQEVVVKVTDEEQMKRLLKIEK | 0.298

Sequence | protease stability score
DEEELKDWLRNAREIWETGNPDQMEELADPDASIQVGDRTYHGSDEYKKWVEDMHRHADHIEVKEVSIRGDKVHIQVVINVNGRNFTFEFELRVRNGRVKQFNFDPDRMEEIKK | 0.574
DEEELKHINRELVEVAKTGNPDEWRKLMRKDVTMHVGDKTYHGREKVREHAKTLRDRIDHINVRSVSATGDKVVLNFEAKVNGQTRTYQFQARVHNGRIVSAHINER | 0.006
DEEELKHLMKVQTTGDPDKYEEMADKDVKAKIGDETYHGRETVLTQLRRMLTQIDHLEVKNVDTQGDKVNLRAVANYNGQELDVIYVLVVHNGRVDNMEIDARDEKVEDQLRQAMS | -0.348
DEEELKHVAELILKGDEKELSKMMDEDVRVHIGNKEYHGREQAEEAVKTLVDRADHFQVHDMRTSEGQIHVQLVVNINGENVNMYFVAEVHNGRIKEISARARDPREEEKFNKLLG | 1.68
DEEELKKHAHNLMRAMQTGDPDKVEEYFDPDAEYTVGDQTYRGREDMREWFEEVRRQVDHNQINDVRNSENHVNVDFVLNHNGTNHRVKFKAEIHNGRAKRASITTG | -0.271
DEEELKTAETNIRTGNFDDLSKQADENVNVQVGEKTIQGREEFNKVAHHLQKDVDHFEVKHVHNQGDQVNAEAVFVVDGKDLSFNMQMKMHNGRVKSVVFRATDETILRTYKEMLR | -0.152
DEEELKTIIRDMQSNDEERLANLFDEDAKVDVGDDVLHGREDVTKFFRKVNKRIDHFEIKTYDVRGEEVEVTVEAVVNGQRIKFVWVLTIKNGKAKSAKLSVTDKKQKRILEKNMD | 1.12
DEEELMNRFWETMERIMEKGDEDTMRKQVDPNAKAEYGDKTVHGRHQFAKFWIEQARRADHIKFDIKSIDVKPPTIVVRLTVKFNVNGTNHKRDISIVFKVHNGRIVLHNAHEN | 1.02
DEEELQEMIHEFVKALETGNPDDIDKNADEDAKAVYGDKEVEGREQIKHQIKQLHDAIDHLEVKRVSFDNGRAHIHVEMTVNGERFTAKITVEAHNGKIKDVQFDPRLRNAYES | 0.81
DEEELQRWAERIVEAFTHGDPQRLSKNVDKNVKVTVGEHEYHGKEELNKILEEIRRQADRIHYKSVDVQGDRANFDMVMNVNGKNVKFTLIVRFENGHAKHLEFDPRMWRVVQR | 1.53
DEEELQSVKEYIENLQTNNESRLRKYADPNAQITVGDKVIHGMEDFQRQMEEDRRHSRISFKSVEFRYHDGKAVVHAEFTHVDNGQPDEVRVDYRFKLHNGRIKSQNVREVK | -0.331
DEEELRELVRNIIEQLQQNNEEELKKQMDKDARMQYGDKEWHGREDIVRHLASVAHQVDHLELESVSVDGNKAHFTFRRQVNGHDETLRAELVVRNGRVVSIKYRHN | -0.021
DEEELREMVKKWLEVVQKGDQKKAVEMYKPNGEWRMIDEEKQGQEDVEKMLRKAQEDGVEFQTRKAKVEGNKAEMHYDMKLGDETVTFTVQLVAHGGRIDRVKVKVTEEAKKLLTKG | 0.221
DEEELRQAMKVVKTNDPDNLRKLMDENVRVQVGNKVYHGREEAEKWLERMRKQIDHVNVRRVQIQGDRIVVEMEVTVNGKTIEATLHAKLHNGSLKSLRVEATSEKEKEKIEEANK | 0.93
DEEELSEVANNMERILREGDPDKARSLADENAKAHIGDKKYHGREQIREMIHRMRTRADKVTVNELRITNGVIKIVAEFNVNGRNIEIVVHIRVNNGKISEVNFEVRDPDQYKEIYS | 0.386
DEEELSHFLDVVRTGDFHEMAKMVDPNARINVGDKRVHGREDAETLIKEIQKRADHVEVDSYSIEGDKVRVLMRVNVNGVEVVFILVVQLNNGRIVHRQVDVTNEELEKQVRHANS | 0.659
DEEELSQVVRKVIEALRTGDPDLFQKLADPNAKASVGDKSVHGKEEISSLQKEFSDRVDEIKFTHVSFENGHATIHMELNHNGRHDKVVVKIDVENGKIKHVQIEKS | 0.741
DEEELTKTLHEIIKDFVHGDSNQLRENADPNVKLKVGDKEIRGHHEVHKWAKKLRERVDSIKVKDYSATGEKAVAHVIADINGENVEITIVIQAHNGRIKLITVDPEDDKKMKQ | 0.279
DEEELTTLAEQLMDIIEQGDKKRFHQLADPNARMDVGDKRYHGREEMAKNLYDLVERVDTISVDSLSARNGRIKIDMRFKVNGQDVKQILVVRADNGTITRVSIETS | 0.849
DEEEMDRFIKHLERNDEDRWVQMADPNVKVRIGDNTLRGREQLKKWFHRFRKRVDTYSIDSYTVHGEKIKVRAKFQVDGRNVQFSFVVVIKNGRIKSATYEARNEEDQEQDKRDLE | 1.5
DEEEMEKVLQVQSTGNPDRYRKLADKDVRLVVGDTEVQGKEKVVKKVHDFHKQIDHQDYESMSAEGNRIDVLLRNVVNGQELVLRVVVRVHNGRIKEVELRARSEEEQSRFDHAWK | 0.093
DEEEMKEMLEKWHEAVQKGDSDKVKKLYKPNVEWEDSDTQKQGVEVVIKMLQEVQKKGLEFQVRKAKVEGDTAQAVYDLRFGDKTVTFTVELQAQGGRVDKVRVELNEEAKKVLTKG | 1.19
DEEENKDVATTFVKAVEQGDPDKISHLFDENARAQIGDKEYHGREDLMRMAQEWRDRYDHIEIQDYKVHGNKVTAHFVMQHNGKRERRVMTAEWRNGQIHSMQVHSS | 1.37
DEEENKHLISLFERNNWRDMAEMADKDVKAQYGDSTIHGREQVHEVLTQLQKRADHLEIKDYNVDGNKVVVDQVINVNGVTIRAKVLMEVHNGRIKQMHVQATDNEEKKKLDKVLS | -0.466
DEEENNKIARRAAKAFSTGDPDEFHKLVDPNARVRIGEKEVHGREDVHRMVQELRERADHIQVTSFTFQGNKITLDLSLDVNGHTVKLNVEITIHNGHVVDINIDPEQVKSLHG | 0.647
